The text below walks through data of EP3020822A1 (Janssen Biotech, Inc., dated 2016).

Substitutions are numbered along the chain they refer to. Names and notes keep the numbering of the source.

The chains are these.
B1: mAb 15 (antibody, human IgG4 S228P, kappa)
heavy: not shown
light: DIQMTQSPSSLSASVGDRVTITCRASQSIGLYLAWYQQKPGKAPKLLIYAASSLQSGVPSRFSGSGSGTDFTLTISSLQPEDFATYYCQQGNTLSYTFGQGTKVEIKRTVAAPSVFIFPPSDEQLKSGTASVVCLLNNFYPREAKVQWKVDNALQSGNSQESVTEQDSKDSTYSLSSTLTLSKADYEKHKVYACEVTHQGLSSPVTKSFNRGEC
B2: mAb 5429 (antibody, mouse IgG1, kappa, V domains shown)
VH: EVQLVASGGGLVKPGASLKLSCVASGFTFSDYWMAWVRQTPGKPMEYIGDIKSDGSKVNYAPSLKNRFTISRDNARTTLYLQMSNVRSEDTATYYCNRDIGPDWYFDFWGPGTMVTVSS
VL: DIQMTQSPTSLSASLGETVTIECRASEDIYNGLAWYQQKPGKSPQLLIYDSNSLHTGVPSRFSGRGSGTQYSLRINSLQSEDVASYFCQQYYDYPLTFGSGTKLEIKR
B3: mAb c1811 (antibody, mouse IgG1, kappa, V domains shown)
VH: B2 VH
VL: B2 VL
B4: mAb 15EVQ (antibody, human IgG4 S228P, kappa, F234A L235A)
heavy: not shown
light: B1 light
B5: mAb 14 (antibody, human IgG4 S228P, kappa, V domains shown)
VH: QVELVQSGAEVKKPGESLKISCKGSGYSFTNYWVGWVRQMPGKGLEWMGFIDPSDSYTNYAPSFQGQVTISADKSISTAYLQWSSLKASDTAMYYCARELYQGYMDTFDSWGQGTLVTVSS
VL: DIQMTQSPSSLSASVGDRVTITCRASQSIGLYLAWYQQKPGKAPKLLIYAASSLQSGVPSRFSGSGSGTDFTLTISSLQPEDFATYYCQQAETVSPTFGQGTKVEIKR
notes: human IgG4 with S229P; also called candidate 14; Fab 14
B6: mAb 17 (antibody, human IgG4 S228P, V domains shown)
VH: QVELQQSGPGLVKPSQTLSLTCAISGDSVSTRSAAWGWIRQSPGRGLEWLGRIYMRSKWYNDYAVSVKSRITINPDTSKNQFSLQLNSVTPEDTAVYYCARHTYPYLSFDVWGQGTLVTVSS
VL: DIELTQPPSVSVAPGQTARISCSGDALGGYFVSWYQQKPGQAPVLVIYDDDNRPSGIPERFSGSNSGNTATLTISGTQAEDEADYYCASYDGDEFTVFGGGTKLTVL
notes: human IgG4 with S229P; also called candidate 17; Fab 17
B7: mAb 5 (antibody, human IgG4 S228P, V domains shown)
VH: B6 VH
VL: B6 VL with A88Q, G92E, E94S, F95A
notes: human IgG4 with S229P; also called candidate 5; Fab 5
B8: mAb 6 (antibody, human IgG4 S228P, V domains shown)
VH: B6 VH
VL: B6 VL with A88G, G92S, D93N, E94S, F95L
notes: human IgG4 with S229P; also called candidate 6; Fab 6
B9: mAb 3 (antibody, human IgG4 S228P, V domains shown)
VH: B6 VH with Y54H, M55R
VL: B6 VL
notes: human IgG4 with S229P; also called candidate 3; Fab 3
B10: mAb 7 (antibody, human IgG4 S228P, V domains shown)
VH: B6 VH
VL: B6 VL with A88S, G92S, E94S, F95L
notes: human IgG4 with S229P; also called candidate 7; Fab 7
B11: mAb 4 (antibody, human IgG4 S228P, V domains shown)
VH: B6 VH with R52K, Y54S, M55Y, K58R
VL: B6 VL
notes: human IgG4 with S229P; also called candidate 4; Fab 4
B12: mAb 8 (antibody, human IgG4 S228P, V domains shown)
VH: QVELQQSGPGLVKPSQTLSLTCAISGDSVSSNSAAWGWIRQSPGRGLEWLGIIQTRSKWYNDYAVSVKSRITINPDTSKNQFSLQLNSVTPEDTAVYYCARYSYPFYSIDYWGQGTLVTVSS
VL: DIELTQPPSVSVAPGQTARISCSGDNIGSYYVHWYQQKPGQAPVLVIYEDSERPSGIPERFSGSNSGNTATLTISGTQAEDEADYYCQSYDSQFSFGVFGGGTKLTVL
notes: human IgG4 with S229P; also called candidate 8; Fab 8
B13: mAb 10 (antibody, human IgG4 S228P, V domains shown)
VH: B12 VH with T55K, D62N
VL: DIELTQPPSVSVAPGQTARISCSGDNIGSYYVHWYQQKPGQAPVLVIYEDSERPSGIPERFSGSNSGNTATLTISGTQAEDEADYYCQSYDTPVYSVFGGGTKLTVL
notes: human IgG4 with S229P; also called candidate 10; Fab 10
B14: mAb 18 (antibody, human IgG4 S228P, V domains shown)
VH: B12 VH with T55K, D62N
VL: B12 VL
notes: human IgG4 with S229P; also called candidate 18; Fab 18
B15: mAb 9 (antibody, human IgG4 S228P, V domains shown)
VH: B12 VH with T55I, V65L
VL: B12 VL
notes: human IgG4 with S229P; also called candidate 9; Fab 9
B16: mAb 11 (antibody, human IgG4 S228P, V domains shown)
VH: B12 VH with T55K, D62N
VL: B13 VL with Q88S, T92E, V94N, Y95F, S96N
notes: human IgG4 with S229P; also called candidate 11; Fab 11
B17: mAb 13 (antibody, human IgG4 S228P, V domains shown)
VH: B5 VH
VL: DIQMTQSPSSLSASVGDRVTITCRASQSIGLYLAWYQQKPGKAPKLLIYAASSLQSGVPSRFSGSGSGTDFTLTISSLQPEDFATYYCQQGESILSTFGQGTKVEIK
notes: human IgG4 with S229P; also called candidate 13; Fab 13
B18: mAb 19 (antibody, human IgG4 S228P, V domains shown)
VH: B5 VH
VL: B17 VL with G91Y, E92G, I94V, L95S, S96I
notes: human IgG4 with S229P; also called candidate 19; Fab 19
B19: mAb 2 (antibody, human IgG4 S228P, V domains shown)
VH: QVELVQSGAEVKKPGESLKISCKGSGYSFNNYWIGWVRQMPGKGLEWMGIIDPQDSWTNYAPSFQGQVTISADKSISTAYLQWSSLKASDTAMYYCARNIYEFDYWGQGTLVTVSS
VL: DIQMTQSPSSLSASVGDRVTITCRASQGISSWLNWYQQKPGKAPKLLIYGASNLQSGVPSRFSGSGSGTDFTLTISSLQPEDFAVYYCQQYDDFSITFGQGTKVEIK
notes: human IgG4 with S229P; also called candidate 2; Fab 2
B20: mAb 16 (antibody, human IgG4 S228P, V domains shown)
VH: B19 VH with Q54G, W57Y
VL: B19 VL
notes: human IgG4 with S229P; also called candidate 16; Fab 16
B21: mAb 1 (antibody, human IgG4 S228P)
heavy: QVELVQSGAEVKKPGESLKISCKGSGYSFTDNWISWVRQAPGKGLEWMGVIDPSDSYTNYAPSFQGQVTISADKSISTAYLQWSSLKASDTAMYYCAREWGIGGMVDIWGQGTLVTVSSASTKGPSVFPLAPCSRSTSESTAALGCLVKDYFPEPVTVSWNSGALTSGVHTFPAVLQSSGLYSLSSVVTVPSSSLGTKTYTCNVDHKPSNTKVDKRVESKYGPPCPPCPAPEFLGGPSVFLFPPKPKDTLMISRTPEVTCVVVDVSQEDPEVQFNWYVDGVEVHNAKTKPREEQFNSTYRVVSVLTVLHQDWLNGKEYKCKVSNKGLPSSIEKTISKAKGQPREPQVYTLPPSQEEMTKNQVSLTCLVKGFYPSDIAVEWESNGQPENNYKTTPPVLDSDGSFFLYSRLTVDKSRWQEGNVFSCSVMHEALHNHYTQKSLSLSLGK
VL: DIVLTQSPATLSLSPGERATLSCRASQYIDISYLAWYQQKPGQAPRLLIYDASSRATGVPARFSGSGSGTDFTLTISSLEPEDFAVYYCQQYYSLSITFGQGTKVEIK
notes: human IgG4 with S229P; also called candidate 1; Fab 1
B22: mAb 15-5 (antibody, human IgG4 S228P, kappa, F234A L235A, V domains shown)
VH: B5 VH with Q1E, E3Q, V34I, G35S, F50R, A61S, Q67H
VL: B5 VL with A91G, E92N, V94L, P96Y
notes: also called HC: F50R/V34I/G35S/A61S/Q67H
B23: mAb 15-9 (antibody, human IgG4 S228P, kappa, F234A L235A, V domains shown)
VH: B5 VH with Q1E, E3Q, V34I, G35S, F50R, A61S, Q67H, E99Q
VL: B5 VL with A91G, E92N, V94L, P96Y
notes: also called HC: F50R/V34I/G35S/A61S/Q67H/E99Q
B24: mAb 15-6 (antibody, human IgG4 S228P, kappa, F234A L235A, V domains shown)
VH: B5 VH with Q1E, E3Q, V34I, G35S, E99Q
VL: B5 VL with A91G, E92N, V94L, P96Y
notes: also called HC: V34I/G35S/E99Q
B25: mAb 15-1 (antibody, human IgG4 S228P, kappa, F234A L235A, V domains shown)
VH: B5 VH with Q1E, E3Q, F50R
VL: B5 VL with A91G, E92N, V94L, P96Y
notes: also called HC: F50R
B26: mAb 15-3 (antibody, human IgG4 S228P, kappa, F234A L235A, V domains shown)
VH: B5 VH with Q1E, E3Q, V34I, G35S
VL: B5 VL with A91G, E92N, V94L, P96Y
notes: also called HC: V34I/G35S
B27: mAb 15-4 (antibody, human IgG4 S228P, kappa, F234A L235A, V domains shown)
VH: B5 VH with Q1E, E3Q, A61S, Q67H
VL: B5 VL with A91G, E92N, V94L, P96Y
notes: also called HC: A61S/Q67H
B28: mAb 15-2 (antibody, human IgG4 S228P, kappa, F234A L235A, V domains shown)
VH: B5 VH with Q1E, E3Q, V34I
VL: B5 VL with A91G, E92N, V94L, P96Y
notes: also called HC: V34I

The first assay has as its target murine TLR3, full length (mouse, UniProt Q99MB1 26-905). Put plainly: cell-based or functional assay.
B1: the “IC50, poly(I:C) ISRE luciferase reporter gene assay, HEK293T cells with full-length murine TLR3” value (from here on “IC50 … with full-length murine TLR3”) is 22 µg/mL.

Regarding B2, the “IC50 … with full-length murine TLR3” value turned out to be 0.5 µg/mL.

As for B3, the “IC50 … with full-length murine TLR3” value stood at 0.7 µg/mL.

The next assay addresses cynomolgus TLR3 (cynomolgus, UniProt A0A2K5WT39 32-912). In words: cell-based or functional assay.
For B4, the “IC50, cyno ISRE reporter gene assay” value was 1.74 µg/mL and the “IC50, cyno NF-κB reporter gene assay” value stood at 4.18 µg/mL.

Another assay addresses T1, human TLR3 extracellular domain (ECD) (human, UniProt O15455 24-703).
T1 construct: amino acids 1-703 of human TLR3; the structural model covers residues 30-687; also called huTLR3 ECD; TLR3 ECD
In words: Biacore (data not shown).
The molecule B5 returned a Kd below 10 nM.

B6: the Kd was below 10 nM.

B7: the Kd is below 10 nM.

B8 had a Kd below 10 nM.

B9 gave a Kd below 10 nM.

With B10, the Kd is below 10 nM.

In the case of B11, the Kd was below 10 nM.

The molecule B12 yielded a Kd below 10 nM.

Molecule B13 returned a Kd below 10 nM.

In turn, B14 returned a Kd below 10 nM.

Molecule B15 yielded a Kd below 10 nM.

On to B16, for which the Kd is below 10 nM.

In turn, B17 registered a Kd below 10 nM.

B18 returned a Kd below 10 nM.

Molecule B19 came in with a Kd below 10 nM.

In the case of B20, the Kd was below 10 nM.

B21 registered a Kd below 10 nM.

The target in a further assay is T1, human TLR3 extracellular domain (ECD). Put plainly: ELISA, human TLR3 ECD coated, goat anti-human Fc:HRP, luminescence.
For B22, the binding result is on record as “binds”.

As for B23, the binding result was “binds”.

For the molecule B24, the binding result was “binds”.

Consider B25, for which the binding result is reported as “binds”.

B26: the binding result was “binds”.

As to B27, the binding result is recorded as “binds”.

In the case of B28, the binding result was “binds”.

For another assay the target is unchanged. Put plainly: ELISA, huTLR3 ECD coated, mAb titrated, anti-human IgG-peroxidase.
Take B5: the midpoint of the response, the EC50, lay at 0.0336 µg/mL.

B6 had an EC50 of 0.0138 µg/mL. This EC50 is about 2.4-fold lower than that of the molecule before.

In turn, B7 came in with an EC50 of 0.0199 µg/mL.

In turn, B8 displayed an EC50 of 0.019 µg/mL. The EC50 values of the last two molecules are within 1.5-fold of each other.

For B9, the EC50 stood at 0.0234 µg/mL.

In turn, B10 returned an EC50 of 0.0161 µg/mL.

With B11, the EC50 worked out at 0.0128 µg/mL.

Consider B12, for which the EC50 is 0.0186 µg/mL.

Molecule B13 gave an EC50 of 0.0158 µg/mL.

Regarding B14, the EC50 amounted to 0.00968 µg/mL.

B15: the EC50 was 0.0226 µg/mL.

The molecule B16 displayed an EC50 of 0.0263 µg/mL.

The molecule B17 came in with an EC50 of 0.0235 µg/mL.

In the case of B18, the EC50 was found to be 0.0665 µg/mL.

As to B19, the EC50 stood at 0.0531 µg/mL.

In the case of B20, the EC50 was determined as 0.0437 µg/mL.

Consider B21, for which the midpoint of the response, the EC50, lay at 0.0172 µg/mL.
